What all share (experiment): yeast two-hybrid, human RAD51 mutant
One test deals with T1, Rad51 (A190L; A192L) (human, UniProt Q06609 1-339).
T1 construct: Human RAD51 mutant tested by Y2H; also called human RAD51 A190L A192L
T1 chain: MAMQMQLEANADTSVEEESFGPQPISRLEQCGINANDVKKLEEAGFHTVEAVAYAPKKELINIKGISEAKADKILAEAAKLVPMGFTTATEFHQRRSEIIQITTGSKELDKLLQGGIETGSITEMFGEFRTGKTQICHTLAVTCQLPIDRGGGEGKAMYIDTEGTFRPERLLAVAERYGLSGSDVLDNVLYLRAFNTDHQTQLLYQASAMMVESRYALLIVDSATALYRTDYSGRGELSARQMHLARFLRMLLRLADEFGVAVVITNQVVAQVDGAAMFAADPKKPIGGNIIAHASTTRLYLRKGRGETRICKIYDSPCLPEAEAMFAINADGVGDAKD
The method, then:
(§1) The ability of peptides to bind human RAD51 with various mutations was then tested by Y2H assay. […] While mutations affecting BRCA2 binding had no effect on peptide binding, mutations that affected RAD51-AP1 binding did disrupt peptide binding. As these mutations were at residues 202, 205, and 206, they were consistent with the previous fusion data showing binding somewhere in the 190-218 region, and indicated the peptide SEQ ID NO.:5 contacts at least residues 202, 205, and 206 of RAD51.

Test [1] has as its target T2, Rad51 (S208L; A209E; M210A) (human, UniProt Q06609 1-339).
T2 construct: Human RAD51 mutant tested by Y2H; also called human RAD51 S208L A209E M210A
T2 chain: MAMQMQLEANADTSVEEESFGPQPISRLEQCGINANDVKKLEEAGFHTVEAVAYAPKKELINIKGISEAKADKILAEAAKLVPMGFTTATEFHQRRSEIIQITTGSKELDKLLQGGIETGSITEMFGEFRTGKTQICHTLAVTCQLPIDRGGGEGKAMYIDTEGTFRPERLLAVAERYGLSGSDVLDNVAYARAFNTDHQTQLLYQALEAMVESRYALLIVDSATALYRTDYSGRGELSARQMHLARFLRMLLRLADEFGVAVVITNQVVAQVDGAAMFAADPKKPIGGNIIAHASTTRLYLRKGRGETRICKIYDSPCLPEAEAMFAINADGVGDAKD
The method, then: as §1

A further test concerns the target T3, Rad51 (S208E; A209D) (human, UniProt Q06609 1-339).
T3 construct: Human RAD51 mutant tested by Y2H; also called human RAD51 S208E A209D
T3 chain: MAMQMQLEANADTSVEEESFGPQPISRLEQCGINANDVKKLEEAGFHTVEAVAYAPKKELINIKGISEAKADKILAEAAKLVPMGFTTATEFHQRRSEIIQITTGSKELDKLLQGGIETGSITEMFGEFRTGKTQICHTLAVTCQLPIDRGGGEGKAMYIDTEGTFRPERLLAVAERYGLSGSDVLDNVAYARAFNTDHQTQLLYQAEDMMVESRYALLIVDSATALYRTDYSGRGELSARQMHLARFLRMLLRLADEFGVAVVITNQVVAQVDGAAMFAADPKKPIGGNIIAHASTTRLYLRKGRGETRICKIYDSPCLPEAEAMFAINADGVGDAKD
Here is the method:
as §1

Test [2] addresses T4, Rad51 (Q202R, Y205D, Q206A) (human, UniProt Q06609 1-339).
T4 construct: Human RAD51 mutant tested by Y2H; also called human RAD51 Q202R Y205D Q206A
T4 chain: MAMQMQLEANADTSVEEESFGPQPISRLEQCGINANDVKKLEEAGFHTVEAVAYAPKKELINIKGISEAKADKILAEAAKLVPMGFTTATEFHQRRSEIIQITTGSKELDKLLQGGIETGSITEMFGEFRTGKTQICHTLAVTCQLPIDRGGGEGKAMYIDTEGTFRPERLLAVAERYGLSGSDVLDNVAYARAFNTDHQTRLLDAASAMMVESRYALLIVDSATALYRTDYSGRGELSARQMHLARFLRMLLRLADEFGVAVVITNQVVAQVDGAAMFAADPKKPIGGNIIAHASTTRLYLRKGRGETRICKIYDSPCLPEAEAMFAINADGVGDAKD
Here is the method:
as §1

In the case of KRRRRRRRKRLGVRLRVSRML [compound 5 peptide sequence (SEQ ID NO.:5)], the binding result in the test with Rad51 (A190L; A192L) is given as “binds”; in test [1] it was “binds”; with Rad51 (S208E; A209D), “binds”; in test [2] it was “no binding”.

These data come from patent US20170368132A1 (published 2017).
